The Human Domainome abundance scans (Beltran et al. 2025)
± gives the uncertainty stated by the source.

B1: Myocardin-related transcription factor A, residues 341 to 383; numbered along this chain, Q969V6 (parent)
chain: GALPANLDDMKVAELKQELKLRSLPVSGTKTELIERLRAYQDQ
B2: Gamma-crystallin D, residues 90 to 170; numbered along this chain, P07320 (parent)
chain: IRLYEREDYRGQMIEFTEDCSCLQDRFRFNEIHSLNVLEGSWVLYELSNYRGRQYLLMPGDYRRYQDWGATNARVGSLRRV

Variants of: B1
Assay: abundance fitness (aPCA) (normalised: wild type 0, dead -1); higher = more abundant; growth selection in yeast, the domain comes from the species named
Conditions: Homo sapiens

| Variant | abundance fitness |
| --- | --- |
| GALPANLDDMKVAELKQELKLRSLPVSGTKTELIERLRAYCDQ | 0.061 ± 0.1 |
| GALPANLDDMKVAELKQELKLRSLPVSGTKTELIERLRAYFDQ | 0.222 ± 0.19 |
| GALPANLDDMKVAELKQELKLRSLPVSGTKTELIERLRAYGDQ | 0.262 ± 0.058 |
| GALPANLDDMKVAELKQELKLRSLPVSGTKTELIERLRAYHDQ | -0.125 ± 0.1 |
| GALPANLDDMKVAELKQELKLRSLPVSGTKTELIERLRAYIDQ | -0.021 ± 0.21 |
| GALPANLDDMKVAELKQELKLRSLPVSGTKTELIERLRAYKDQ | 0.202 ± 0.096 |
| GALPANLDDMKVAELKQELKLRSLPVSGTKTELIERLRAYLDQ | 0.069 ± 0.066 |
| GALPANLDDMKVAELKQELKLRSLPVSGTKTELIERLRAYMDQ | 0.107 ± 0.078 |
| GALPANLDDMKVAELKQELKLRSLPVSGTKTELIERLRAYNDQ | 0.18 ± 0.21 |
| GALPANLDDMKVAELKQELKLRSLPVSGTKTELIERLRAYPDQ | 0.066 ± 0.072 |
| GALPANLDDMKVAELKQELKLRSLPVSGTKTELIERLRAYRDQ | 0.089 ± 0.06 |
| GALPANLDDMKVAELKQELKLRSLPVSGTKTELIERLRAYSDQ | 0.081 ± 0.061 |
| GALPANLDDMKVAELKQELKLRSLPVSGTKTELIERLRAYVDQ | 0.055 ± 0.056 |
| GALPANLDDMKVAELKQELKLRSLPVSGTKTELIERLRAYWDQ | 0.083 ± 0.083 |
| GALPANLDDMKVAELKQELKLRSLPVSGTKTELIERLRAYYDQ | -0.307 ± 0.28 |
| GALPANLDDMKVAELKQELKLRSLPVSGTKTELIERLRAYQAQ | 0.205 ± 0.066 |
| GALPANLDDMKVAELKQELKLRSLPVSGTKTELIERLRAYQCQ | 0.045 ± 0.16 |
| GALPANLDDMKVAELKQELKLRSLPVSGTKTELIERLRAYQEQ | 0.137 ± 0.11 |
| GALPANLDDMKVAELKQELKLRSLPVSGTKTELIERLRAYQHQ | -0.23 ± 0.093 |

| Variant | abundance fitness |
| --- | --- |
| GALPANLDDMKVAELKQELKLRSLPVSGTKTELIERLRAYQIQ | -0.538 ± 0.12 |
| GALPANLDDMKVAELKQELKLRSLPVSGTKTELIERLRAYQKQ | 0.022 ± 0.083 |
| GALPANLDDMKVAELKQELKLRSLPVSGTKTELIERLRAYQLQ | -0.081 ± 0.072 |
| GALPANLDDMKVAELKQELKLRSLPVSGTKTELIERLRAYQNQ | 0.186 ± 0.41 |
| GALPANLDDMKVAELKQELKLRSLPVSGTKTELIERLRAYQPQ | 0.059 ± 0.13 |
| GALPANLDDMKVAELKQELKLRSLPVSGTKTELIERLRAYQQQ | -0.087 ± 0.23 |
| GALPANLDDMKVAELKQELKLRSLPVSGTKTELIERLRAYQRQ | -0.234 ± 0.076 |
| GALPANLDDMKVAELKQELKLRSLPVSGTKTELIERLRAYQSQ | -0.017 ± 0.11 |
| GALPANLDDMKVAELKQELKLRSLPVSGTKTELIERLRAYQTQ | 0.037 ± 0.12 |
| GALPANLDDMKVAELKQELKLRSLPVSGTKTELIERLRAYQWQ | -0.31 ± 0.12 |
| GALPANLDDMKVAELKQELKLRSLPVSGTKTELIERLRAYQDC | -0.037 ± 0.1 |
| GALPANLDDMKVAELKQELKLRSLPVSGTKTELIERLRAYQDE | 0.357 ± 0.27 |
| GALPANLDDMKVAELKQELKLRSLPVSGTKTELIERLRAYQDH | -0.01 ± 0.25 |
| GALPANLDDMKVAELKQELKLRSLPVSGTKTELIERLRAYQDI | 0.042 ± 0.11 |
| GALPANLDDMKVAELKQELKLRSLPVSGTKTELIERLRAYQDR | 0.567 ± 0.21 |
| GALPANLDDMKVAELKQELKLRSLPVSGTKTELIERLRAYQDS | -0.029 ± 0.13 |
| GALPANLDDMKVAELKQELKLRSLPVSGTKTELIERLRAYQDT | 0.164 ± 0.1 |
| GALPANLDDMKVAELKQELKLRSLPVSGTKTELIERLRAYQDV | 0.334 ± 0.1 |
| GALPANLDDMKVAELKQELKLRSLPVSGTKTELIERLRAYQDW | 0.208 ± 0.23 |

Variants of: B2
Assay: as above
Conditions: Homo sapiens

| Variant | abundance fitness |
| --- | --- |
| I1A | 0.139 ± 0.24 |
| I1F | -0.462 ± 0.45 |
| I1G | -0.344 ± 0.18 |
| I1L | -0.1 ± 0.34 |
| I1M | -0.021 ± 0.14 |
| I1N | 0.12 ± 0.31 |
| I1T | -0.37 ± 0.22 |
| I1V | -0.094 ± 0.27 |
| I1W | -1 ± 0.34 |
| R2L | -0.162 ± 0.33 |
| R2T | -0.105 ± 0.19 |
| R2V | -0.146 ± 0.3 |
| L3F | -0.012 ± 0.43 |
| L3G | -0.131 ± 0.18 |
| L3P | -1 ± 0.46 |
| L3R | -1.02 ± 0.38 |

| Variant | abundance fitness |
| --- | --- |
| L3S | 0.122 ± 0.21 |
| L3T | -0.239 ± 0.31 |
| L3V | 0.076 ± 0.14 |
| Y4A | -0.472 ± 0.13 |
| Y4C | 0.222 ± 0.35 |
| Y4D | 0.074 ± 0.32 |
| Y4E | -0.881 ± 0.3 |
| Y4G | -0.683 ± 0.21 |
| Y4H | 0.219 ± 0.44 |
| Y4L | -0.646 ± 0.17 |
| Y4N | 0.02 ± 0.11 |
| Y4R | -0.22 ± 0.11 |
| Y4V | -0.82 ± 0.16 |
| Y4W | -0.192 ± 0.15 |
| E5A | -0.086 ± 0.09 |
